Measurements from patent US20160000930A1 (University of Texas, published 2016).
Bridge positions count the residues as written; N and C are the ends. Ends that are not written are not given here.

Experiments:
[1] = target: T1, glycosylated bovine DCN (purified, Sigma-Aldrich) (bovine, UniProt P21793 31-360, glycosylated (GAG chain)); experiment: ELISA, protein coated (FIG. 16B)
T1 construct: also called bDCN*
Description: (§1) Bovine DCN was from Sigma-Aldrich, NS0-derived murine DCN was from R&D Systems. Murine DCN cDNA was generated from WAT total RNA using SuperScript kit (Invitrogen). For bacterial expression, full-length mouse core DCN and ΔDCN isoforms were produced by cloning fragments encoding amino acids 1-354 and 45-354 of mouse DCN cDNA (OriGene) or of CLIC4 cDNA (OriGene) in-frame with the His₆Tag into pET28a vector, respectively. His₆-tagged proteins were purified with His-Tag kit (Novagen). For ELISA binding assays, 100 μl of 10 μg/ml of indicated His₆-DCN preparations, His₆-CLIC4 (control His₆-protein), NS0 cell-expressed mouse DCN (R&D Systems), purified bovine DCN (Sigma-Aldrich), or BSA were coated and immobilized onto Maxisorb Immunoplates (96 well; NUNC) overnight at 4° C., followed by blocking with 3% BSA, and then incubating with 100 μl of indicated concentrations of WAT7 or control WAT2 peptides. […] Bound peptides or FLAG-resistin were probed with corresponding rabbit anti-peptide Genemed antibodies (1:2,000) or rabbit anti-FLAG antibodies (Sigma-Aldrich, 1:2,000) followed by secondary goat anti-rabbit HRP-conjugated antibodies (Millipore, 1:5,000) and signal detection with Ultra-TMB (Pierce) substrate and measurement of absorbance at 450 nm. […]

[2] = target: T2, bovine serum albumin (bovine, UniProt P02769 25-607); experiment: ELISA, BSA coated as background control
T2 construct: Background control in ELISA; also called BSA
Description: as §1, with “Signal was detected by Odyssey imaging system using anti-goat IRDye 800CW or anti-rabbit IRDye 680 both from Licor Biosciences. Bovine” for “Bovine”

[3] = target: T2, bovine serum albumin; experiment: ELISA, BSA coated as background control (FIG. 6D)
Description: as §1, with “Signal was detected by Odyssey imaging system using anti-goat IRDye 800CW or anti-rabbit IRDye 680 both from Licor Biosciences. Bovine” for “Bovine”

[4] = target: T1, glycosylated bovine DCN (purified, …); experiment: ELISA, protein coated, FLAG-resistin detected with anti-FLAG (FIG. 6D)
Description: as §1, with “Signal was detected by Odyssey imaging system using anti-goat IRDye 800CW or anti-rabbit IRDye 680 both from Licor Biosciences. Bovine” for “Bovine”

[5] = target: T3, recombinant bacterially-purified mouse ΔDCN (His6-tagged, amino acids 45-354 of mouse DCN) (mouse, UniProt P28654 45-354); experiment: ELISA, DCN forms coated, FLAG-resistin detected with anti-FLAG (FIG. 6D); reference: full-length DCN (mDCN)
T3 construct: Expressed in bacteria, so not glycosylated; also called delta-DCN; His6-ΔDCN
T3 sequence: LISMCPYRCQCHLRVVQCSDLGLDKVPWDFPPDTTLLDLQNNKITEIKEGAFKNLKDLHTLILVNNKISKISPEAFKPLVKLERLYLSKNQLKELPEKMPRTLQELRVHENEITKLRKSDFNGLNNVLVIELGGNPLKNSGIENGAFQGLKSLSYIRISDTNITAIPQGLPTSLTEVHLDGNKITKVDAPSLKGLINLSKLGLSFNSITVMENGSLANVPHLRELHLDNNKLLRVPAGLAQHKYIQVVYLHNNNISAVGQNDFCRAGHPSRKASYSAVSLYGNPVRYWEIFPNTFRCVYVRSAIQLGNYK
Protocol: For bacterial expression, full-length mouse core DCN and ΔDCN isoforms were produced by cloning fragments encoding amino acids 1-354 and 45-354 of mouse DCN cDNA (OriGene) or of CLIC4 cDNA (OriGene) in-frame with the His₆Tag into pET28a vector, respectively. His₆-tagged proteins were purified with His-Tag kit (Novagen). For ELISA binding assays, 100 μl of 10 μg/ml of indicated His₆-DCN preparations, His₆-CLIC4 (control His₆-protein), NS0 cell-expressed mouse DCN (R&D Systems), purified bovine DCN (Sigma-Aldrich), or BSA were coated and immobilized onto Maxisorb Immunoplates (96 well; NUNC) overnight at 4° C., followed by blocking with 3% BSA, and then incubating with 100 μl of indicated concentrations of WAT7 or control WAT2 peptides. For adipokines binding assay, FLAG-tagged mouse resistin produced in HEK293 cells (Enzo Life Sciences), or control FLAG-BAP protein (Sigma-Aldrich) were incubated at the concentrations indicated. Bound peptides or FLAG-resistin were probed with corresponding rabbit anti-peptide Genemed antibodies (1:2,000) or rabbit anti-FLAG antibodies (Sigma-Aldrich, 1:2,000) followed by secondary goat anti-rabbit HRP-conjugated antibodies (Millipore, 1:5,000) and signal detection with Ultra-TMB (Pierce) substrate and measurement of absorbance at 450 nm. […]

T2 sequence (P02769 25-607 limits assumed): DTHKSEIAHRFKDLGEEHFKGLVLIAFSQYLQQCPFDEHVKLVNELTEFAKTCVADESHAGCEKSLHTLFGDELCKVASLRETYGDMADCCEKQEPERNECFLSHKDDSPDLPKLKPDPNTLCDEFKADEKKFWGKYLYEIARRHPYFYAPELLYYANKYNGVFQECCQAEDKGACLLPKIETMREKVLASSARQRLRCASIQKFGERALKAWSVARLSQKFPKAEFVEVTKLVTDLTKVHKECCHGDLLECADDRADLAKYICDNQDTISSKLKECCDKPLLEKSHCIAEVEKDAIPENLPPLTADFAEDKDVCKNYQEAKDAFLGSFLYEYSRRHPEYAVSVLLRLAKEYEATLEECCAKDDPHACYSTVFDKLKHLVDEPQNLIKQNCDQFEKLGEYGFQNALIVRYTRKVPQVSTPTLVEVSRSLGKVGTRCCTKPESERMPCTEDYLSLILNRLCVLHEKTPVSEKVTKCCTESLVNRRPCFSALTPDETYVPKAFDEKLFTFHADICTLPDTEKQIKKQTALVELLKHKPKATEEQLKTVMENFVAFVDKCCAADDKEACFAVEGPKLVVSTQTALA
T1 sequence (P21793 31-360 limits assumed): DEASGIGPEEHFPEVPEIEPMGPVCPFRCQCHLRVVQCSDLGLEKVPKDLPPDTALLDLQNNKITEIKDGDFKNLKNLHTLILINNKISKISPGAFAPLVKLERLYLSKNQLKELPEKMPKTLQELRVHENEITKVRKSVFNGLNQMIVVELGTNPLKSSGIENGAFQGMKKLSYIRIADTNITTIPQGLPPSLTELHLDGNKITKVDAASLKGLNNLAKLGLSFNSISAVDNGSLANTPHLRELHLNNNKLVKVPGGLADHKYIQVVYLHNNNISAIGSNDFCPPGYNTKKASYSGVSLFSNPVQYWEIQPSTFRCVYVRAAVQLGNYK

B1: WAT7 peptide, cysteine-cyclized synthetic (CSWKYWFGEC) (peptide)
peptide: CSWKYWFGEC
modifications: disulfide 1-10
notes: Chemically synthesized (Genemed Synthesis); also called cyclic WAT7
- binding result [1]: no binding
- binding result [2]: no binding

B2: FLAG-tagged mouse resistin produced in HEK293 cells (Enzo Life Sciences) (ligand, UniProt Q99P87 21-114, looked up)
chain: SSMPLCPIDEAIDKKIKQDFNSLFPNAIKNIGLNCWTVSSRGKLASCPEGTAVLSCSCGSACGSWDIREEKVCHCQCARIDWTAARCCKLQVAS
notes: Bought protein; also called FLAG-resistin; ADSF; not shown: FLAG tag
- binding result [3]: no binding
- binding result [4]: no binding
- fold lower molar concentration for binding than to full-length DCN [5]: 100 fold
